The values that follow come from patent publication US20170334995A1 (Boehringer Ingelheim, published 2017).

For assay [1], the target named is T1, human PD1 expressed on the surface of CHO cells (human, UniProt Q15116 25-288).
T1 construct: whole, on cells; also called PD1 expressing CHO cells
Briefly: blocking assay on cells: biotin-labelled human PD-L1 binding to PD1-expressing CHO cells, Europium-streptavidin fluorescence, % inhibition against antibody concentration [A]. The procedure: (§1) The mixture was incubated for 1 hour at 37 degrees celsius. […] Percentage inhibition values were calculated in Excel and curve fitting was done with GraphPad Prism. Data points of the curve are mean values of triplicate measurements.

The target of assay [2] is T1, human PD1 expressed on the surface of …. Nature of the assay: ligand blocking on PD1-expressing CHO cells, competitor biotin-PD-L1. How it is done:
as §1

The target of a further assay is T2, human PD1 ECD (human, UniProt Q15116 21-170).
T2 construct: range 21-170; also called recombinant monomeric human PD1; recombinant human PD1
T2 sequence (Q15116 21-170 limits assumed, form in doubt): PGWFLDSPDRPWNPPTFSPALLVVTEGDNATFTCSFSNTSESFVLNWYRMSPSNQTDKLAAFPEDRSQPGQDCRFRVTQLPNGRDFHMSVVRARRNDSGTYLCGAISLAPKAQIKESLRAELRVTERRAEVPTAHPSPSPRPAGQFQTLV
Briefly: SPR (ProteOn XPR36), antibody captured on Protein A/G, PD1 ECD as analyte, 1:1 Langmuir fit. The procedure:
Binding affinities to recombinant monomeric human PD1 were measured by SPR using a ProteOn XPR36 instrument. […] Human PD1 ECD was injected over the captured antibodies for 600 sec at a flowrate of 30 ul/min and a dissociation for 1200 sec.

The target of assay [3] is T1, human PD1 expressed on the surface of …. Briefly: blocking assay on cells: biotin-labelled human PD-L2 binding to PD1-expressing CHO cells, Europium-streptavidin fluorescence, % inhibition against antibody concentration [D]. The procedure: as §1
Assay [4] shares this target. Briefly: ligand blocking on PD1-expressing CHO cells, competitor biotin-PD-L2. How it is done:
as §1

For assay [5] the target is unchanged. Briefly: blocking assay on cells: biotin-labelled human PD-L1 binding to PD1-expressing CHO cells, Europium-streptavidin fluorescence, % inhibition against antibody concentration [B]. How it is done: as §1
For assay [6] the target is unchanged. Briefly: blocking assay on cells: biotin-labelled human PD-L2 binding to PD1-expressing CHO cells, Europium-streptavidin fluorescence, % inhibition against antibody concentration [E]. The procedure:
as §1

Assay [7] has as its target T3, Human LAG3 ECD-Fc (human, UniProt P18627 23-450).
T3 construct: extracellular domain; 23-450 is stated only for the immunogen; also called recombinant human LAG3 extracellular domain fused to human Fc; hLAG3-hlgFc; not shown: Fc
T3 sequence (looked up): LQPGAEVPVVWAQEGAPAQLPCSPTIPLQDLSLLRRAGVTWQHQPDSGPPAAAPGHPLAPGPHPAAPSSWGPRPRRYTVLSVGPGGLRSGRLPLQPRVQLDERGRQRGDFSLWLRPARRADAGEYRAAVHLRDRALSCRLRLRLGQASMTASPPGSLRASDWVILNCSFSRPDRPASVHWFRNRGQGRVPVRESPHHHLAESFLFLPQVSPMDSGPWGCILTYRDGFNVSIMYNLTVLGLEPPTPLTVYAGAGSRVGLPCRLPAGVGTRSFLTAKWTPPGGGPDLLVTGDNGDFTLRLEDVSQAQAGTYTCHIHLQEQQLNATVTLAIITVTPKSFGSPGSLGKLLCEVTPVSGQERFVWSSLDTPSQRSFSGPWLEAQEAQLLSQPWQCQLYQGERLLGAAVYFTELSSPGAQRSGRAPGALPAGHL
Briefly: SPR, antibody captured on Protein A/G, LAG3 ECD-Fc as analyte, 1:1 Langmuir fit. A general note: SPR reads the build-up and loss of mass on a sensor chip optically.

Assay [8] concerns the target T3, Human LAG3 ECD-Fc. Briefly: blocking assay by FACS: LAG3 ECD-Fc pre-incubated with the antibody, then binding to MHC II on Raji cells detected with PE anti-human IgG, % inhibition against antibody concentration. On the technique in general: Flow cytometry measures light scatter and fluorescence of single cells or particles in a stream.
The target in another assay is T4, human LAG3 (ECD) (human, UniProt P18627 23-450).
T4 construct: range 23-450; the screening reagent is called only 'human LAG3 (ECD)'; also called human LAG3 ECD protein
T4 sequence (looked up): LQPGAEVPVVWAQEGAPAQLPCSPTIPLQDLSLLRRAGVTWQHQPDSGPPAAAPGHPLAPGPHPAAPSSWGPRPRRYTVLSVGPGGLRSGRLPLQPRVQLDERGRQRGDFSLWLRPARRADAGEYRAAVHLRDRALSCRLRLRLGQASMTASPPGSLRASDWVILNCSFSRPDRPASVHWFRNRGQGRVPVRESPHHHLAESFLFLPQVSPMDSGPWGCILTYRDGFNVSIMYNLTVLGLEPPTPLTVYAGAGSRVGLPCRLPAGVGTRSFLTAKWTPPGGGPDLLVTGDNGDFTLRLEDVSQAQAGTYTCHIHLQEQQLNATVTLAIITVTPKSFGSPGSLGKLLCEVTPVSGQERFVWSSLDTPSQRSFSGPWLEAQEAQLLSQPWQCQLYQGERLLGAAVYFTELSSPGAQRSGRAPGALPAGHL
Briefly: hybridoma screening.

T1 sequence (Q15116 25-288): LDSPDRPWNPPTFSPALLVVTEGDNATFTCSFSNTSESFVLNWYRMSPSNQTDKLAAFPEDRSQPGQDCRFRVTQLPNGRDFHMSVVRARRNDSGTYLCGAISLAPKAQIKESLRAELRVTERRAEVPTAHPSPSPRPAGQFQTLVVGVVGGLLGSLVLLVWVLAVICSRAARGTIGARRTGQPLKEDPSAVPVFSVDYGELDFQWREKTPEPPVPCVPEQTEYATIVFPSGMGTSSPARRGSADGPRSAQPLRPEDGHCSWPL

B1: PD1-1 (antibody, human IgG4 S228P, kappa, V domains shown)
VH: EVMLVESGGGLVQPGGSLRLSCTASGFTFSASAMSWVRQAPGKGLEWVAYISGGGGDTYYSSSVKGRFTISRDNAKNSLYLQMNSLRAEDTAVYYCARHSNVNYYAMDYWGQGTLVTVSS
VL: EIVLTQSPATLSLSPGERATMSCRASENIDTSGISFMNWYQQKPGQAPKLLIYVASNQGSGIPARFSGSGSGTDFTLTISRLEPEDFAVYYCQQSKEVPWTFGQGTKLEIKR
notes: Humanized derivative of murine 77E11; the HC is IgG4 (Pro), kappa light chain; also called anti-PD1 antibody PD1-1
Regarding B1, the entries for the “IC50 (read off the curve)” value in assay [1] and in assay [3] were approximately 0.8 nM and approximately 1 nM, respectively. For the same molecule, the values for the IC90 in assay [2] and in [4] were 2.12 nM and 2.09 nM, respectively. The Kd in the assay with human PD1 ECD worked out at 16.6 nM.

B2: PD1-2 (antibody, human IgG4 S228P, kappa, V domains shown)
VH: EVMLVESGGGLVQPGGSLRLSCTASGFTFSASAMSWVRQAPGKGLEWVAYISGGGGDTYYSSSVKGRFTISRDNAKNSLYLQMNSLRAEDTAVYYCARHSNPNYYAMDYWGQGTLVTVSS
VL: EIVLTQSPATLSLSPGERATMSCRASENIDTSGISFMNWYQQKPGQAPKLLIYVASNQGSGIPARFSGSGSGTDFTLTISRLEPEDFAVYYCQQSKEVPWTFGQGTKLEIKR
notes: Humanized derivative of murine 77E11; the HC is IgG4 (Pro), kappa light chain; also called anti-PD1 antibody PD1-2
Regarding B2, the “IC50 (read off the curve)” value in assay [1] and in assay [3] was approximately 1 nM each time. In addition, the IC90 in assay [2] came out at 2.97 nM; in assay [4] it was 3.64 nM. In the assay with human PD1 ECD, the Kd turned out to be 61.8 nM.

B3: PD1-3 (antibody, human IgG4 S228P, kappa, V domains shown)
VH: EVMLVESGGGLVQPGGSLRLSCTASGFTFSKSAMSWVRQAPGKGLEWVAYISGGGGDTYYSSSVKGRFTISRDNAKNSLYLQMNSLRAEDTAVYYCARHSNVNYYAMDYWGQGTLVTVSS
VL: EIVLTQSPATLSLSPGERATMSCRASENIDVSGISFMNWYQQKPGQAPKLLIYVASNQGSGIPARFSGSGSGTDFTLTISRLEPEDFAVYYCQQSKEVPWTFGQGTKLEIKR
notes: Humanized derivative of murine 77E11; the HC is IgG4 (Pro), kappa light chain; also called anti-PD1-3; representative anti-PD1 antibody of the invention
B3: the values for the IC90 in [2] and in assay [4] were 1.68 nM and 1.95 nM, respectively. For the same molecule, the “IC50 (read off the curve)” value was approximately 0.8 nM in [5] and approximately 1 nM in assay [6]. Also, the affinity in the assay with human PD1 ECD, expressed as Kd, was 6 nM.

B4: LAG3-4 (antibody, human IgG4 S228P, kappa, V domains shown)
VH: QVTLVESGGGVVQPGRSLRLSCAFSGFSLSTSDMGVGWIRQAPGKGLEWVAHIWWDDVKRYNPALKSRFTISRDNSKNTLYLQMNSLRAEDTATYFCARIEDYGVSYYFDYWGQGTTVTVSS
VL: DIVMTQSPSFLSASVGDRVTITCKASQDVSTAVAWYQQKPGKAPKLLIYSASYRYTGVPDRFSGSGSGTDFTLTISSLQPEDFATYYCQQHYSIPLTFGQGTKLEIKR
notes: Humanized derivative of murine 496G6, human IgG4 (Pro) format, kappa; also called anti-LAG3 antibody LAG3-4
On to B4, for which binding in the assay with Human LAG3 ECD-Fc [7] was characterised by a dissociation constant (Kd) of 0.1 nM.

B5: LAG3-2 (antibody, human IgG4 S228P, kappa, V domains shown)
VH: QVTLKESGPTLVKPTQTLTLTCSFSGFSLSTSDMGVGWIRQPPGKALEWLAHIWWDDVKRYNPALKSRLTITKDTSKNQVVLTMTNMDPVDTATYFCARIEDYGVSYYFDYWGQGTTVTVSS
VL: DIQMTQSPSFLSASVGDRVTFTCKASQDVSTAVAWYQQKPGKAPKLLIYSASYRYTGVPDRFSGSGSGTDFTLTISSLQPEDFATYYCQQHYSIPLTFGQGTKLEIKR
notes: Humanized derivative of murine 496G6, human IgG4 (Pro) format, kappa; also called anti-LAG3 antibody LAG3-2
Take B5: the “IC50 (read off the curve)” value in the assay with Human LAG3 ECD-Fc [8] is approximately 0.7 nM. In the assay with Human LAG3 ECD-Fc [7], this molecule returned a Kd of 0.09 nM.

B6: LAG3-5 (antibody, human IgG4 S228P, kappa, V domains shown)
VH: QVTLKESGPTLVKPTQTLTLTCSFSGFSLSTSDMGVGWIRQPPGKALEWLAHIWWDDVKRYNPALKSRLTITKDTSKNQVVLTMTNMDPVDTATYFCARIVDYGVSYYFDYWGQGTTVTVSS
VL: DIQMTQSPSFLSASVGDRVSITCKASQDVSTAVAWYQQKPGKAPKLLIYSASYRYTGVPDRFSGSGSGTDFTLTISSLQPEDFAVYYCQQHYSIPLTFGQGTKLEIKR
notes: Humanized derivative of murine 496G6, human IgG4 (Pro) format, kappa; also called anti-LAG3 antibody LAG3-5
Turning to B6, the “IC50 (read off the curve)” value with Human LAG3 ECD-Fc [8] is approximately 1 nM. For the same molecule, binding in the assay with Human LAG3 ECD-Fc [7] was characterised by a dissociation constant (Kd) of 0.07 nM.

B7: LAG3-1 (antibody, human IgG4 S228P, kappa, V domains shown)
VH: QVTLVESGGGVVQPGRSLRLSCAFSGFSLSTSDMGVGWIRQAPGKGLEWVAHIWWDDVKRYNPALKSRFTISRDNSKNTLYLQMNSLRAEDTAVYFCARIEDYGVSYYFDYWGQGTTVTVSS
VL: DIQMTQSPSFLSASVGDRVSITCKASQDVSTAVAWYQQKPGKAPKLLIYSASYRYTGVPDRFSGSGSGTDFTLTISSLQPEDFATYYCQQHYSIPLTFGQGTKLEIKR
notes: Humanized derivative of murine 496G6, human IgG4 (Pro) format, kappa; also called representative anti-LAG3 antibody of the invention
B7: the “IC50 (read off the curve)” value with Human LAG3 ECD-Fc [8] was approximately 1 nM. Moreover, the Kd in the assay with Human LAG3 ECD-Fc [7] was 0.125 nM.

B8: LAG3-3 (antibody, human IgG4 S228P, kappa, V domains shown)
VH: QVTLVESGGGVVQPGRSLSLSCAFSGFSLSTSDMGVGWVRQPPGKGLEWVAHIWWDDVKRYNPALKSRFTISRDNSKNTLYLQMNSLRAEDTATYYCARIEDYGVSYYFDYWGQGTTVTVSS
VL: DIQMTQSPSFLSASVGDRVTITCKASQDVSTAVAWYQQKPGKAPKLLIYSASYRYTGVPDRFSGSGSGTDFTLTISSLQPEDFATYYCQQHYSIPLTFGAGTKLEIKR
notes: Humanized derivative of murine 496G6, human IgG4 (Pro) format, kappa; also called anti-LAG3 antibody LAG3-3
As to B8, in the assay with Human LAG3 ECD-Fc [8], the “IC50 (read off the curve)” value is approximately 0.8 nM. In the assay with Human LAG3 ECD-Fc [7], this molecule came in with a Kd of 0.12 nM.

B9: 496G6 (antibody, V domains shown)
VH: QVTLKESGPGILQPSQTLSLTCSFSGFSLSTSDMGVGWIRQPSGKGLEWLAHIWWDDVKRYNPALKSRLTISKDTSSSQVFLMIASVDTADTATYFCARIEDYGVSYYFDYWGQGTTLTVSS
VL: DIVMTQSHKFMSTSVGDRVSFTCKASQDVNTAVAWYQQKPGQSPKLLIYSASYRYTGVPDRFTGSGSGTDFTFTISSVQAEDLALYYCQQHYSIPLTFGAGTKLELK
notes: Murine monoclonal antibody from a hybridoma; also called murine progenitor antibody 496G6; monoclonal antibody produced by 496G6
As to B9, in the assay with human LAG3 (ECD), the binding result is “binds”.

The term IC90 denotes the concentration needed for an effect of 90%. A low value points to an effect from little substance. One may read the Kd as the concentration at which binding is half-saturated. Read a low Kd as tighter binding.
